Laboratory results reported in publication PMC6261967.

Columns and labels:
[1] = molecular target: 40S ribosomal subunit (human (endogenous in HeLa)) (UniProt P62753); assay: co-sedimentation; ribosome fractions from HeLa cells, first and second 10-40% sucrose gradient, 20 mM Tris-HCl pH 7.5, 500 mM KCl, 4 mM magnesium acetate, 2 mM DTT, 4 °C; fractions and the purified subunits blotted for PABP, without GST-Paip2 treatment
[2] = molecular target: 60S ribosomal subunit (human (endogenous in HeLa)) (UniProt P40429); assay: as above
[3] = molecular target: the ribosome (40S + 60S subunits) (human (endogenous in HeLa)) (UniProt P62753); assay: co-sedimentation; puromycin-treated crude ribosomal preparation resolved by sucrose-gradient centrifugation; ribosome fractions combined for western blot (Supplementary Fig. S1)

poly(A)-binding protein (PABP), endogenous in HeLa ribosome preparations (from UniProt P11940 1-636) (natural protein)
molar ratio of subunit to PABP in the purified subunit (western blot) [1]: 10
molar ratio of subunit to PABP in the purified subunit (western blot) [2]: 10
molar ratio of PABP to the ribosome (40S + 60S subunits) (western blot) [3]: 2
